Reference: patent publication US20170128524A1

Molecular target: c-Jun N-terminal Kinase (JNK)
Assay: cell-based or functional assay

L-JNKi1 (peptide)
phosphorylation of STX1a (S14) in synaptosomes, L-JNKi1 on its own: -45%
